According to patent EP4671282A1 (Jiangsu Hengrui Pharmaceuticals Co., Ltd., dated 2025):
Read-outs that look alike come from different tables or passages of the source.

T1: IL-36R on human skin squamous cell line A431 (human, UniProt Q9HB29 20-575)
T1 sequence (looked up): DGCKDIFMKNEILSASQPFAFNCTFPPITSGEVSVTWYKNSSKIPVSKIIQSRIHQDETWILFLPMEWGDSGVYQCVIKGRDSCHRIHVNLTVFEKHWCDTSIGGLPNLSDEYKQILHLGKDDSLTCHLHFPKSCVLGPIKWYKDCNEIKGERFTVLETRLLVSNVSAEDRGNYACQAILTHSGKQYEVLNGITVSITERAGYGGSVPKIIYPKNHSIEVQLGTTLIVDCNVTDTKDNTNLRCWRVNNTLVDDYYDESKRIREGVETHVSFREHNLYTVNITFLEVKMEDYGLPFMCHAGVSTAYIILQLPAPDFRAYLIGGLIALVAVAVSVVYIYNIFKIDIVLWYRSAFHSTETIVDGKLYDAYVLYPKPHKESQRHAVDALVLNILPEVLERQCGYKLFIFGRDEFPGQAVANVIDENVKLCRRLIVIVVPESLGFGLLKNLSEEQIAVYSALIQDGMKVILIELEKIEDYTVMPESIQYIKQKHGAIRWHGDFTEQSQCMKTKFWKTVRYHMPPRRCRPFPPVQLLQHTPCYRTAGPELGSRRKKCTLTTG

T2: human IL-23 protein (ACROBiosystems, ILB-H52W5) (human, UniProt Q9NPF7 20-189; P29460 23-328)
T2 construct: Bought protein; construct not described; also called Human IL-23 antigen; human IL-23 antigen protein
T2 sequence (looked up) 1: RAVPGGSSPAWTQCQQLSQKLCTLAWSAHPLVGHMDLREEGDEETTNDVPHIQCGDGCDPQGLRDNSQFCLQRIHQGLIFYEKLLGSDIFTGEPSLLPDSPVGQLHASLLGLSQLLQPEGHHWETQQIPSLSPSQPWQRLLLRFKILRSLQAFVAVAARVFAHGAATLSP
T2 sequence (looked up) 2: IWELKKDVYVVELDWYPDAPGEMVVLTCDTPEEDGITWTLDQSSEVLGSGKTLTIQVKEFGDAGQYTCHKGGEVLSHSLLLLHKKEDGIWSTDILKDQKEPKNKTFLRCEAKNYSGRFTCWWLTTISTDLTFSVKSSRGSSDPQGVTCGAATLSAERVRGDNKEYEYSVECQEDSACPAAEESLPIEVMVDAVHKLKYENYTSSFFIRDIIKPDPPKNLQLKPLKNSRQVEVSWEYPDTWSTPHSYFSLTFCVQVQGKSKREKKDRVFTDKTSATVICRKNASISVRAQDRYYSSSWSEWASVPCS

T3: Human IL-36R protein (His + Avi Tag), Kactus IL1-HM4L2 (human, UniProt Q9HB29 20-335)
T3 construct: Bought protein; also called human IL-36R antigen protein; Human IL-36R antigen
T3 sequence: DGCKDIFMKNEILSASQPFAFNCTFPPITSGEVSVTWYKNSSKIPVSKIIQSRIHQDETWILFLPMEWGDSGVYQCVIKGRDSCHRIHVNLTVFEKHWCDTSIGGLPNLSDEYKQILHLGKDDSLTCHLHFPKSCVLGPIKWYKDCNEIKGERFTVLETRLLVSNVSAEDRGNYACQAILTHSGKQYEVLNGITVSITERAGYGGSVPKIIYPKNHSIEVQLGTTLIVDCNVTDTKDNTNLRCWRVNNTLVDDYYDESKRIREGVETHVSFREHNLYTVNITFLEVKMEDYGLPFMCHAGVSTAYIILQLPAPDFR

T4: human IL-36R full-length protein stably expressed on CHO-K1 cells (human, UniProt Q9HB29 20-575)
T4 construct: FlpIn CHO-K1 line expressing the full-length protein; also called human IL-36R on the surface of CHO-K1 cells; CHO-K1 cells overexpressing human IL-36R
T4 sequence: T1 sequence (looked up)

T5: human IL-23 protein (Sino Biological, CT048-H08H) (human, UniProt Q9NPF7 20-189; P29460 23-328)
T5 sequence (looked up) 1: T2 sequence (looked up) 1
T5 sequence (looked up) 2: T2 sequence (looked up) 2

T6: IL-23 (R&D Systems, 1290-IL-010) (UniProt Q9NPF7 20-189; P29460 23-328)
T6 sequence (looked up) 1: T2 sequence (looked up) 1
T6 sequence (looked up) 2: T2 sequence (looked up) 2

T7: Human IL-36R protein (His + Avi Tag, biotinylation), Kactus IL1-HM4L2B (human, UniProt Q9HB29 20-335, biotinylated)
T7 construct: Screening antigen of the phage panning; also called biotinylated human IL-36R; human IL-36R antigen (screening antigen)
T7 sequence: T3 sequence

B1: IL-36R-IL-23-01 (anti-IL-36R and anti-IL-23 bispecific antibody, VHH213_Hu07 on Hu29-19, Structure A) (bispecific antibody, human IgG1, kappa, L234A L235A)
heavy: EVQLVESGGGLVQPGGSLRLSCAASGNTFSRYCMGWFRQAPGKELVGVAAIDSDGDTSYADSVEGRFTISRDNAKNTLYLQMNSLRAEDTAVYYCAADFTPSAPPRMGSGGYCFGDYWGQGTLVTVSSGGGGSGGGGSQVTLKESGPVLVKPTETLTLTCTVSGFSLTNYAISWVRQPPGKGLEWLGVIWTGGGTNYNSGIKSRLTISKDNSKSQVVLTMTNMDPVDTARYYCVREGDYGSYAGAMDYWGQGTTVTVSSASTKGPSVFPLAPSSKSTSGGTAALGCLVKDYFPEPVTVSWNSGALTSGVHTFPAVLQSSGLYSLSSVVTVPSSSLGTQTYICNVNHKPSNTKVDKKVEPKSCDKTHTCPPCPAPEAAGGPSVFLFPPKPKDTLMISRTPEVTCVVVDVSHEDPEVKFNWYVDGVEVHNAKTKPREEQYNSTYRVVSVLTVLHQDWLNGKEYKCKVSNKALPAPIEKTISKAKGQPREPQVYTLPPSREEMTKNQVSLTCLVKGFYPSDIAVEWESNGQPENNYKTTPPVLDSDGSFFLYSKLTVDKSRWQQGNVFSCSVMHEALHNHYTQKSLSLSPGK
light: DIVLTQSPDSLAVSLGERATINCRASESVDYYGISSMHWFQQKPGQPPKLLIYRASNLESGIPARFSGSGSRTDFTLTISSLQAEDVAVYYCQQANKDPYTFGGGTKVEIKRTVAAPSVFIFPPSDEQLKSGTASVVCLLNNFYPREAKVQWKVDNALQSGNSQESVTEQDSKDSTYSLSSTLTLSKADYEKHKVYACEVTHQGLSSPVTKSFNRGEC
notes: VHH fused by a (G4S)2 linker to the N-terminus of the heavy chain; IgG1 L234A/L235A
B2: IL-36R-IL-23-02 (anti-IL-36R and anti-IL-23 bispecific antibody, VHH162_Hu11 on Hu29-19, Structure A) (bispecific antibody, human IgG1, kappa, L234A L235A)
heavy: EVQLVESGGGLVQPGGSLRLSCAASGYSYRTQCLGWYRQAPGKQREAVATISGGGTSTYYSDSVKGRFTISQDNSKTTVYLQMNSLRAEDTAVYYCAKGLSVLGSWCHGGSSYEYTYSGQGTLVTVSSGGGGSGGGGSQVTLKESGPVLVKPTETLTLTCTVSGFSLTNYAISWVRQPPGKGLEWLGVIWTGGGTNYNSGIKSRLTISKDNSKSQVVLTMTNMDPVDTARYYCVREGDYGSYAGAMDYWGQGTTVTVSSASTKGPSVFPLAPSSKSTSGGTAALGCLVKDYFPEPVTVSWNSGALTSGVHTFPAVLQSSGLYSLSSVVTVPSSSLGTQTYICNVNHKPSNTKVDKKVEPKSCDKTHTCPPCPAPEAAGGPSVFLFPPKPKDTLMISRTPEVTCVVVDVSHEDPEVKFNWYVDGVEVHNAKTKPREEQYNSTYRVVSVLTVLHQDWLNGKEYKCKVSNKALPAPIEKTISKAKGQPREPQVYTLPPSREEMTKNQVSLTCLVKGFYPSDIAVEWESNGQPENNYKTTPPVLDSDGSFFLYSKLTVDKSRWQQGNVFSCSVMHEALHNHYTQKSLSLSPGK
light: B1 light
notes: VHH fused by a (G4S)2 linker to the N-terminus of the heavy chain; IgG1 L234A/L235A; also called IL-36R-1L-23-02
B3: Hu29-19 (humanized anti-IL-23 antibody, hAb29VH5 and hAb29VL3) (antibody, human IgG1, kappa, L234A L235A, V domains shown)
VH: QVTLKESGPVLVKPTETLTLTCTVSGFSLTNYAISWVRQPPGKGLEWLGVIWTGGGTNYNSGIKSRLTISKDNSKSQVVLTMTNMDPVDTARYYCVREGDYGSYAGAMDYWGQGTTVTVSS
VL: DIVLTQSPDSLAVSLGERATINCRASESVDYYGISSMHWFQQKPGQPPKLLIYRASNLESGIPARFSGSGSRTDFTLTISSLQAEDVAVYYCQQANKDPYTFGGGTKVEIKR
B4: VHH162 (camelid nanobody clone from the phage library) (VHH)
VHH: DVQLVESGGGSVQPGGSLRLSCAASGYSYRTQCLGWYRQAPGKQREAVATISGGGTSTYYSDSVKGRFTISQDNARTTVYLSLTSLKPEDTATYYCAAGLSVLGSWCHGGSSYEYTYSGQGTQVTVSS
notes: As identified by panning and clone ELISA (phage or clone format not described)

Tests used:
[1] = molecular target: T1, IL-36R on human skin squamous cell line …; experiment: cell-based or functional assay
[2] = molecular target: T2, human IL-23 protein (ACROBiosystems, …); experiment: SPR (Biacore 8K), antibody captured by anti-human IgG Fc, IL-23 as analyte
[3] = molecular target: T3, Human IL-36R protein (His + Avi Tag), …; experiment: SPR (Biacore 8K), antibody captured by anti-human IgG Fc, IL-36R as analyte
[4] = molecular target: T2, human IL-23 protein (ACROBiosystems, …); experiment: ELISA, human IL-23 coated
[5] = molecular target: T4, human IL-36R full-length protein stably …; experiment: FACS, CHO-K1 cells overexpressing human IL-36R
[6] = molecular target: T2, human IL-23 protein (ACROBiosystems, …); experiment: cell-based or functional assay
[7] = molecular target: T2, human IL-23 protein (ACROBiosystems, …); experiment: cell-based or functional assay; remark: listed apart in the source
[8] = molecular target: T2, human IL-23 protein (ACROBiosystems, …); experiment: cell-based or functional assay; remark: listed apart in the source
[9] = molecular target: T5, human IL-23 protein (Sino Biological, …); experiment: cell-based or functional assay
[10] = molecular target: T5, human IL-23 protein (Sino Biological, …); experiment: ELISA, test sample coated, His-tagged IL-23 in solution
[11] = molecular target: T5, human IL-23 protein (Sino Biological, …); experiment: competition ELISA, IL-23R coated, biotinylated IL-23 preincubated with antibody
[12] = molecular target: T6, IL-23 (R&D Systems, 1290-IL-010); experiment: cell-based or functional assay
[13] = molecular target: T5, human IL-23 protein (Sino Biological, …); experiment: SPR (Biacore 8K), antibody captured on Protein A chip, IL-23 as analyte
[14] = molecular target: T7, Human IL-36R protein (His + Avi Tag, …); experiment: phage panning on biotinylated human IL-36R, clone ELISA

Binder	IL-8 secretion (A431), IL-36α, IC50 [1] [nM]	IL-8 secretion (A431), IL-36β, IC50 [1] [nM]	IL-8 secretion (A431), IL-36γ, IC50 [1] [nM]	Kd [2] [nM]	koff [2] [s⁻¹]	kon [2] [M⁻¹ s⁻¹]	Kd [3] [nM]	koff [3] [s⁻¹]	kon [3] [M⁻¹ s⁻¹]	EC50 [4] [nM]	EC50 [5] [nM]	Maximum MFI [5] [MFI]	proliferation of BaF3-mIL-23R cells induced by IL-23, IC50 [6] [nM]	DB-STAT3-Luc2 reporter gene system IC50 [7] [nM]	proliferation of BaF3-mIL-23R cells induced by IL-23, IC50 [8] [nM]	also measured
B1	0.54	0.2	0.06	0.023	5.97e-05	2.6e+06	6.47	0.000123	19100	1.21	1.28	11600	0.39	7		
B2	1.63	0.74	0.21	0.0235	6.83e-05	2.9e+06	15.9	0.000146	9210	0.49	1.13	11400		8.8	0.5	
B3				0.0106	6.26e-05	5.93e+06				0.55			0.36	5.1	0.43	Activity in inhibiting proliferation of BaF3-IL-23R cells (IC50, nM) [9]: 0.194 nM; EC50 [10]: 1.11 nM; IC50 [11]: 0.478 nM; IC50 for inhibiting IL-17 secretion [12]: 0.0177 nM; Kd [13]: 0.0151 nM; koff [13]: 4.08e-05 s⁻¹; kon [13]: 2.71e+06 M⁻¹ s⁻¹
B4																binding result [14]: binds
